Experiment in all cases: MST; 50 mM Na2HPO4.12H2O, 150 mM NaCl, 0.005% Tween; pH not stated; room temperature; 80 nM DNA; protein from 1-4 mM (highest) downward
One data set addresses WT1 ZF2-4 p.Gln447Pro (Homo sapiens (cDNA from A549 cells), UniProt P19544-2 334-423, Q357P). As to conditions: protein: recombinant; tags: no tag stated; label: 5' Cyanine5; single strand.
A further data set addresses WT1 ZF2-4 p.His450Arg (Homo sapiens (cDNA from A549 cells), UniProt P19544-2 334-423, H360R). The settings on record: protein: recombinant; tags: no tag stated; label: 5' Cyanine5; single strand.
For the next data set, the target named is WT1 ZF2-4 p.Cys433Tyr (Homo sapiens (cDNA from A549 cells), UniProt P19544-2 334-423, C343Y). As to conditions: protein: recombinant; tags: no tag stated; label: 5' Cyanine5; single strand.
The target of data set [1] is WT1 ZF2-4 wild type (-KTS) (Homo sapiens (cDNA from A549 cells), UniProt P19544-2 334-423). The settings on record: protein: recombinant; tags: no tag stated; pET22b, reverse primer has a stop codon; label: 5' Cyanine5; single strand.
The target in the next data set is WT1 ZF2-4 p.Arg463Ter (Homo sapiens (cDNA from A549 cells), UniProt P19544-2 334-372). The settings on record: protein: recombinant; tags: no tag stated; label: 5' Cyanine5; single strand.
A further data set deals with WT1 ZF2-4 p.His474Arg (Homo sapiens (cDNA from A549 cells), UniProt P19544-2 334-423, H384R). The settings on record: protein: recombinant; tags: no tag stated; label: 5' Cyanine5; single strand.
Another data set deals with WT1 ZF2-4 p.Asp469Asn (Homo sapiens (cDNA from A549 cells), UniProt P19544-2 334-423, D379N). As to conditions: protein: recombinant; tags: no tag stated; label: 5' Cyanine5; single strand.
The target of another data set is WT1 ZF2-4 p.Arg467Trp (Homo sapiens (cDNA from A549 cells), UniProt P19544-2 334-423, R377W). As to conditions: protein: recombinant; tags: no tag stated; label: 5' Cyanine5; single strand.
For a further data set, the target named is WT1 ZF2-4 p.Arg439Pro (Homo sapiens (cDNA from A549 cells), UniProt P19544-2 334-423, R349P). As to conditions: protein: recombinant; tags: no tag stated; label: 5' Cyanine5; single strand.

The values below come from paper PMC9130146, “Alteration in DNA-binding affinity of Wilms tumor 1 protein due to WT1 genetic variants associated with steroid - resistant nephrotic syndrome in children”.

WT1 ZF2-4 p.Gln447Pro, sequence (P19544 other isoform, or with tags, fused parts or gaps Q357P | p.Q447P p.Q447P): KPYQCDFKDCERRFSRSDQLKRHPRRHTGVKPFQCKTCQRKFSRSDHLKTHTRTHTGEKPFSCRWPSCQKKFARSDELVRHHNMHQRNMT
WT1 ZF2-4 p.His474Arg, sequence (P19544 other isoform, or with tags, fused parts or gaps H384R | p.H474R p.H474R): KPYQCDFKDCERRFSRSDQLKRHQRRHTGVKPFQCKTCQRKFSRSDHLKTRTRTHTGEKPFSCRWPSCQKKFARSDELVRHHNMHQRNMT
WT1 ZF2-4 p.Arg467Trp, sequence (P19544 other isoform, or with tags, fused parts or gaps R377W | p.R467W p.R467W): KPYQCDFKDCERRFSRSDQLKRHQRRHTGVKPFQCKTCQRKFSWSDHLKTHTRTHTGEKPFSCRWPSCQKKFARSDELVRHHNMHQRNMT
WT1 ZF2-4 p.Asp469Asn, sequence (P19544 other isoform, or with tags, fused parts or gaps D379N | p.D469N p.D469N): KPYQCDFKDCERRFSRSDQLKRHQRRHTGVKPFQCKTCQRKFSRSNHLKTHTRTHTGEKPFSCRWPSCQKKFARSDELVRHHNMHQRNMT
WT1 ZF2-4 p.Cys433Tyr, sequence (P19544 other isoform, or with tags, fused parts or gaps C343Y | p.C433Y p.C433Y): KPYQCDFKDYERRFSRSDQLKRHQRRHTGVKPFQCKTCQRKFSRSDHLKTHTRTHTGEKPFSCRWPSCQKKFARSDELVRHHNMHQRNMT
WT1 ZF2-4 p.Arg463Ter, sequence (P19544 351-389): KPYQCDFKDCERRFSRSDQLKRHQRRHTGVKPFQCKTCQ
WT1 ZF2-4 wild type (-KTS), sequence (P19544 other isoform, or with tags, fused parts or gaps): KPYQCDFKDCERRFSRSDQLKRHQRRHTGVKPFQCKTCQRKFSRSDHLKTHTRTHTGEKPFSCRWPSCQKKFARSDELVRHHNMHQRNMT
WT1 ZF2-4 p.Arg439Pro, sequence (P19544 other isoform, or with tags, fused parts or gaps R349P | p.R439P p.R439P): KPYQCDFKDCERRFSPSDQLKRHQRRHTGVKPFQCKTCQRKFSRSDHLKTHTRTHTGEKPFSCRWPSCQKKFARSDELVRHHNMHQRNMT
WT1 ZF2-4 p.His450Arg, sequence (P19544 other isoform, or with tags, fused parts or gaps H360R | p.H450R p.H450R): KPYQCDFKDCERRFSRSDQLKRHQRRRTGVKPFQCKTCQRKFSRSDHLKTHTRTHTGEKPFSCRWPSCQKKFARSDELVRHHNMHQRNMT

B1: EGR1 DNA motif, Cy5 oligo (ssDNA)
DNA: GTGGAGGCGGCGGGGGCGGCAGCAACAG
Consider B1, for which the Kd in the data set with WT1 ZF2-4 p.Gln447Pro was determined as 24.9 ± 4.2 µM; in the data set with WT1 ZF2-4 p.His450Arg, 878 ± 164 µM; with WT1 ZF2-4 p.Cys433Tyr, 89.4 ± 7 µM; in data set [1], 111 ± 7.4 µM; in the data set with WT1 ZF2-4 p.Arg463Ter it was 324 ± 13.3 µM; with WT1 ZF2-4 p.His474Arg it was 48.4 ± 6 µM. In addition, the results for the Kd in the data set with WT1 ZF2-4 p.Asp469Asn, in the data set with WT1 ZF2-4 p.Arg467Trp and with WT1 ZF2-4 p.Arg439Pro were 12.1 ± 1.7 µM, 94.6 ± 9.8 µM and 319 ± 72.7 µM, respectively.

Usually Kd stands for the constant that tells how readily two partners part at equilibrium.
